The text below walks through data of US20160289747, “DETECTION OF NUCLEIC ACIDS BY STRAND INVASION BASED AMPLIFICATION” (ORION DIAGNOSTICA OY, published 2016).

Data set [1] has as its target T1, gp32 single-stranded DNA binding protein (Enterobacteria phage T4, UniProt P03695 P03695:1-301).
T1 sequence: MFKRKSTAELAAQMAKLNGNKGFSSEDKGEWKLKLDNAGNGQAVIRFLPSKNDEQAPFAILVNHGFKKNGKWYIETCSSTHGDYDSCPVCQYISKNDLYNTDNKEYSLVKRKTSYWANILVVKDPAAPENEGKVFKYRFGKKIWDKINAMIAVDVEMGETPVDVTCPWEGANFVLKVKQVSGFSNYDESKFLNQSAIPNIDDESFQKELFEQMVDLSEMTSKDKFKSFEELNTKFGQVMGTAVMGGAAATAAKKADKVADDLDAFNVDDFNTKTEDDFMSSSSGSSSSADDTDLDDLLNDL
The experiment in a line: little or no fluorescence increase. Particulars: tags: New England Biolabs; label: fluorophore and quencher. The procedure:
(§1) The effect of the single-strand binding protein, bacteriophage T4 gp32 (New England Biolabs), on signal from the same oligonucleotide probes used with UvsX was also elucidated. Similar concentrations of oligonucleotide probes to those used with UvsX were incubated in the presence or absence of 0.25 mg/ml of gp32 and 200 nM complementary template ((SEQ ID NO: 34 for probes with SEQ ID NO 1-8 or SEQ ID NO: 44 for probes with SEQ ID NO: 9 or 10) in a buffer containing 20 mM Tris-acetate pH 7.9, 50 mM potassium acetate, 10 mM Magnesium Acetate and 1 mM DTT.

In data set [2] the target is T2, RecA (Escherichia coli, UniProt P0A7G6 P0A7G6:2-353). The experiment in a line: no significant fluorescence increase; Mg, ATP. Conditions: tags: New England Biolabs; label: fluorophore and quencher. As to the method:
(§2) The effect of Escherichia coli recombinase, RecA (New England Biolabs) on signal from oligonucleotide probes was also elucidated (FIG. 1d). Similar concentrations of oligonucleotide probes to those used in FIGS. 1a and 1b were incubated in the presence or absence of 100 μg/ml of RecA in a buffer containing 70 mM Tris-HCl pH 7.6.10 mM MgCl₂, 5 mM DTT and 10 mM ATP. […] However, the increase was not as high as that seen with T4 UvsX.

Data set [3] addresses T3, UvsX recombinase (Enterobacteria phage T4, UniProt P04529 P04529:1-391). The experiment in a line: probe remained quenched; Mg, ATP, 40 C. Particulars: label: fluorophore and quencher. As to the method: (§3) The oligonucleotide probes were incubated in the presence or absence of 200 nM complementary template (SEQ ID NO: 34 for probes with SEQ ID NO 1-8, or SEQ ID NO: 44 for probes with SEQ ID NO 9 or 10) and 5 μM UvsX in buffer containing 20 mM Tris-acetate pH 8.0, 10 mM Magnesium acetate, 2 mM ATP, 60 mM Tris-Phosphocreatine and 0.025 U/μl Creatine Kinase. Fluorescence was measured after 20 minutes incubation at 40 degrees centigrade.

The target in data set [4] is T1, gp32 single-stranded DNA binding protein. The experiment in a line: fluorescence dequenching; 0.25 mg/ml gp32, Mg, K acetate. Particulars: tags: New England Biolabs; label: fluorophore and quencher. The procedure: as §1
The target of data set [5] is T3, UvsX recombinase. The experiment in a line: fluorescence dequenching; 5 uM UvsX, Mg, ATP, 40 C. Conditions: label: fluorophore and quencher. As to the method: as §3
Data set [6] concerns the target T2, RecA. Description: fluorescence increase, less than UvsX; Mg, ATP. Conditions: tags: New England Biolabs; label: fluorophore and quencher. The procedure: as §2

T2 sequence (P0A7G6 2-353, one chain of several): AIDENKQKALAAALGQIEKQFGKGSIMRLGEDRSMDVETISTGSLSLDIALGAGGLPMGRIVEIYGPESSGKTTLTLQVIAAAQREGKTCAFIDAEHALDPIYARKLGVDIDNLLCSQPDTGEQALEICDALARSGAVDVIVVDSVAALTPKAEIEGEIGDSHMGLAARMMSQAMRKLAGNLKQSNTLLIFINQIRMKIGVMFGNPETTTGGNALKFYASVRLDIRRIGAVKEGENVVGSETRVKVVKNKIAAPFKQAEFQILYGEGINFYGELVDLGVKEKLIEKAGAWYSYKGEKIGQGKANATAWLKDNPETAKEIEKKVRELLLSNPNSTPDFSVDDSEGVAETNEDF
T3 sequence (P04529 whole entry, one chain of several): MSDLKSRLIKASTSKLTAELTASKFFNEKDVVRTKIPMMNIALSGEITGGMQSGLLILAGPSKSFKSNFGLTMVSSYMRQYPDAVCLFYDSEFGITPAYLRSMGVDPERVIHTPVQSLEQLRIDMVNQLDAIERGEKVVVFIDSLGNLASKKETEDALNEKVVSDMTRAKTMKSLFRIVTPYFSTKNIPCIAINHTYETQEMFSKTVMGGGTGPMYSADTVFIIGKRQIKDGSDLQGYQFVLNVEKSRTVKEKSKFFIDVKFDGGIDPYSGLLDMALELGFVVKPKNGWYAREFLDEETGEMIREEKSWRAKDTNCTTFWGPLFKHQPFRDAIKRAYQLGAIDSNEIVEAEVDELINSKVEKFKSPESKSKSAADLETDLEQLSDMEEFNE

B1: LNA 12 (XNA)
RNA: AGUUGAUGUGUA
modifications: LNA
With B1, the binding result in data set [1], in data set [2] and in data set [3] was “no binding” in each case.

B2: RNA 21 (ssRNA)
RNA: ACGAAAGCCGAUGACUAAUGC
Regarding B2, the binding result in data set [1], in data set [2] and in data set [3] was “no binding” each time.

B3: 2'-fluoro RNA 21 (ssRNA)
RNA: ACGAAAGCCGAUGACUAAUGC
modifications: 2'-F
As for B3, the binding result in data set [1], in data set [2] and in data set [3] was “no binding” each time.

B4: 2'-fluoro RNA 16 (ssRNA)
RNA: AGCCGAUGACUAAUGC
modifications: 2'-F
Take B4: the binding result in data set [1] and in data set [3] was “no binding” throughout.

B5: DNA 16 (ssDNA)
DNA: AGCCGATGACTAATGC
For the molecule B5, the binding result in data set [4] and in data set [5] was “binds” each time.

B6: 2'-O-methyl RNA 16 (ssRNA)
RNA: AGCCGAUGACUAAUGC
modifications: 2'-OMe
As for B6, the binding result in data set [1] and in data set [3] was “no binding” each time.

B7: DNA 21 (ssDNA)
DNA: ACGAAAGCCGATGACTAATGC
Regarding B7, the binding result in data set [4], in data set [5] and in data set [6] was “binds” in each case.

B8: RNA 16 (ssRNA)
RNA: AGCCGAUGACUAAUGC
B8: the binding result in data set [1] and in data set [3] was “no binding” each time.

B9: 2'-O-methyl RNA 21 (ssRNA)
RNA: ACGAAAGCCGAUGACUAAUGC
modifications: 2'-OMe
Regarding B9, the binding result in data set [1], in data set [2] and in data set [3] was “no binding” in each case.
